# Laboratory results reported in patent publication US20190010458.
# Target: T1, HA-Etv2 (Mus musculus) (UniProt P41163)
# T1 sequence: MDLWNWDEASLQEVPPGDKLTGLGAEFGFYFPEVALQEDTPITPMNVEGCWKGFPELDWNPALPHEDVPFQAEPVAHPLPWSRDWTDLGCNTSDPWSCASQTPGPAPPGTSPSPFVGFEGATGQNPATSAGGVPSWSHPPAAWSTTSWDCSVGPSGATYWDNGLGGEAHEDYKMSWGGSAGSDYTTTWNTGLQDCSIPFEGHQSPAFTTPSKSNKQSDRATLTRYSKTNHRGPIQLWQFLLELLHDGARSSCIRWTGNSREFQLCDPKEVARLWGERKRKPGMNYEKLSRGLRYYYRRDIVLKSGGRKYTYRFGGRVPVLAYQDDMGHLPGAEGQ
# Settings: ChIP-qPCR with anti-HA, Dox-induced EBs
substance,measurement,value
miR-130a upstream promoter region (ChIP amplicon),binding signal (fold enrichment),15
